Assay results as given in paper PMC10694151, “Regulation of the cell division hydrolase RipC by the FtsEX system in Mycobacterium tuberculosis” (Nature Communications, 2023).

Biological target: T1, RipC (Rv2190c) of Mycobacterium tuberculosis, construct RipCΔ33 (Mycobacterium tuberculosis, UniProt P9WHU3 34-385)
T1 construct: also called MtbRipC; RipC∆33
T1 sequence: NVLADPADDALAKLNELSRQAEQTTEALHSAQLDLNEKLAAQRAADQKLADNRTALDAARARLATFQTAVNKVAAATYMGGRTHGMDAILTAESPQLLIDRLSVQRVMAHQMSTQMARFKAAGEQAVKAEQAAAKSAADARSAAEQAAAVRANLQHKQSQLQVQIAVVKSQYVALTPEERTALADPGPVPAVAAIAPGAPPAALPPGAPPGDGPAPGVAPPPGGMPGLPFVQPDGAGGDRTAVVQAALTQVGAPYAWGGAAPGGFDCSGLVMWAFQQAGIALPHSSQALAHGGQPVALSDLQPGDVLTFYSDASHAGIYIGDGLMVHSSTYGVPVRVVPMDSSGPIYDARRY
Test: cryo-EM structure; FtsEX or FtsEX-RipC in peptidiscs, 3 mg/ml, ATP-free
Settings: both partners purified

B1: FtsX (Rv3101c) of Mycobacterium tuberculosis (natural protein)
chain: MRFGFLLNEVLTGFRRNVTMTIAMILTTAISVGLFGGGMLVVRLADSSRAIYLDRVESQVFLTEDVSANDSSCDTTACKALREKIETRSDVKAVRFLNRQQAYDDAIRKFPQFKDVAGKDSFPASFIVKLENPEQHKDFDTAMKGQPGVLDVLNQKELIDRLFAVLDGLSNAAFAVALVQAIGAILLIANMVQVAAYTRRTEIGIMRLVGASRWYTQLPFLVEAMLAATMGVGIAVAGLMVVRALFLENALNQFYQANLIAKVDYADILFITPWLLLLGVAMSGLTAYLTLRLYVRR
notes: also called MtbFtsX
B1: binds.
